Assay results published in the supplement of paper PMC9170038.

System: MS2 coat protein
Assay: apparent KD of MS2 coat protein; designed switch direction (-1 OFF switch, 1 ON switch): -1; higher = weaker reporter binding
Outline: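 Three titration conditions were used: no input, 200 uM small-molecule ligand, and an oligonucleotide input. In each, SNAP-549-labelled MS2 coat protein was raised from 0.7 or 1.5 nM, doubling, to 3 µM over designed RNA switches transcribed on Illumina chips by stalled E. coli RNA polymerase. Curve fits of normalised cluster fluorescence gave values whose per-design median over clusters is the apparent KD.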

[1] = Eterna round: R95, input ligand: FMN 200 uM
[2] = Eterna round: R95, input ligand: microRNA oligo, concentration not stated
[3] = Eterna round: R95, input ligand: none
[4] = input ligand: microRNA oligo, concentration not stated

Row | Sequence | apparent KD of MS2 coat protein [2] [nM] | apparent KD of MS2 coat protein (input ligand: FMN 200 uM) [nM] | apparent KD of MS2 coat protein (input ligand: none) [nM] | other results
1 | AAAUCCGCUGAGGAUAUUAUGACUGAGAGGUCAUGAGAAGGCGGUACAUGAGGAUCACCCAUGUCUAUGGGCAA [Ex-6 Malc#27] (puzzle: Exclusion 6) | 292 | – | – | apparent KD of MS2 coat protein [1]: 377 nM; apparent KD of MS2 coat protein [3]: 553 nM
2 | GGUUUGGGAGGAUAUGGUUUGAAUAACAUGAGGAUCACCCAUGUAAAUAGAUCUUCCGGGCCAGAAGGCUCGGGCC [-23.9, -21.52 kcal, A 26%] (Eterna round: R97, puzzle: Exclusion 5) | – | 29.5 | 34.6 | –
3 | GCGAAAGCAAGCAAGUGAAACAUGAGGAUCACCCAUGUCCUCAUUUGCUCGUCUUAUAAAAGCUAUCGAAAGAUAGC [Sensor 3, v1 - 1] (puzzle: Sensor v3, turn-off variant 1) | 172 | – | – | apparent KD of MS2 coat protein [1]: 11.6 nM; apparent KD of MS2 coat protein [3]: 13.5 nM
4 | UACAUGAGGAUCACCCAUGUUUUGUCGUGUAUGGUACCCGUUUAGGAUAUCGUGUUAUUGGACCGCGAGAAGGAGAGUAUCAUU [Excl-NG3-LRO05] (Eterna round: R96, puzzle: Exclusion NG 3) | – | 24 | 31.6 | apparent KD of MS2 coat protein [4]: 30 nM
5 | GAUUAUGCGAGCUUUAGGGACAUGAGGAUCACCCAUGUUCGUCUUGUUGAUCUAGGUGCACUAACAUACCUAAAUCU [JMF 33] (puzzle: Sensor v3, turn-off variant 1) | 28.7 | – | – | apparent KD of MS2 coat protein [1]: 24.7 nM; apparent KD of MS2 coat protein [3]: 22.6 nM
6 | ACAAGCUUUUAGAUUCUUAACAUGAGGAUCACCCAUGUGCUCGUCUUAUUGGCCGGCGGGCCGCCGGAAAAGCUUGU (Eterna round: R97, puzzle: Sensor, turn-off variant 1) | – | 283 | 408 | –
7 | GCUGGUCAAGGAUAUAUAUGACGUGCUUCGGCACGAAGGUCACAUGAGGAUCACCCAUGUAGAAGGUGACCAGC [E2/9-C1] (Eterna round: R97, puzzle: Exclusion 2) | – | 304 | 39.7 | –
8 | GUGAACUCGCUACUUACCAACAUGAGGAUCACCCAUGUGGGAGAAAGUGAAUAGCUAGUUGUUACGUCUUAAUCCAG [Eternabot (L1) Solution 47] (Eterna round: R97, puzzle: Sensor, turn-off variant 1) | – | 12.7 | 13 | –
9 | GAUGAGGUAGGAUAUACGAUAAUAUAGGGUAGAUAUAUAACACAUGAGGAUCACCCAUGUAGAAGGACCAGUAG [Mat - Exclusion 2 - Mod of my Tesla design - D66] (puzzle: Exclusion 2) | 33.4 | – | – | –
10 | UAUAUAUAGUAAGGAUAUGUAUAUUUUUUAUAAACAGAAGGUACUGACAUGAGGAUCACCCAUGUUUUAGUGUGGGCAUGUAGA [JMF's solution 53] (Eterna round: R96, puzzle: Exclusion NG 1) | – | – | – | apparent KD of MS2 coat protein [4]: 63.8 nM
11 | UUGGGCAGAGGAUAUCGUACGUAGCACAUGAGGAUCACCCAUGUGGCCAGCCGCUAAACAUGAGAAGGUUGUGUAC [Eternabot (Original) Solution 8] (Eterna round: R97, puzzle: Exclusion 5) | – | 17.6 | 14.3 | –
12 | AAUAACAGAGGAUAUACUAUUUUAUGUGUUUGUUAUUUUGAACAUGAGGAUCACCCAUGUAGAAGGCUGAAUGA [JMF 65] (puzzle: Exclusion 2) | 24.7 | – | – | –
13 | CGGAACCAGACAGGAUAUACCUGUCCGAGACAGACACACAUGAGGAUCACCCAUGUUGAUGUCAGGUAGAAGGGUCAUAAAGAC [Eternabot solution 7] (Eterna round: R96, puzzle: Exclusion NG 2) | – | 9.86 | 11.5 | apparent KD of MS2 coat protein [4]: 10.3 nM
14 | AGCUGGUCAGGAUAUUUGGAGGGACUCCAAUGGUCCACGACGGAGAAGGGACAUGAGGAUCACCCAUGUGGUCG [Eternabot (L2) Solution 13] (Eterna round: R97, puzzle: Exclusion 4) | – | 69.3 | 115 | –
15 | AAUUAACAUCAGGAUAUGACUAGCGAUAGCUAGUCAGAAGGGAUGACAUGAGGAUCACCCAUGUGAUCAAUUAA [E6/2-A4] (Eterna round: R97, puzzle: Exclusion 6) | – | 492 | 131 | –
16 | CUGUACUGAGGAUAUACAUGAGGAUCACCCAUGUUCUUCGGCUAGGAAACUAGCAAAGGUAGAAGGCAGUACAG [Mat - Exclusion 3 - Eli Mod - D68] (Eterna round: R97, puzzle: Exclusion 3) | – | 234 | 15.1 | –
17 | ACAAAGCGAGGAUAUACACAGGUGUCCUGGGCGUCAAAUCGACAUGAGGAUCACCCAUGUAGAAGGCGCAAUAG [Diedated] (Eterna round: R97, puzzle: Exclusion 2) | – | 44.9 | 36.9 | –
18 | AGAUUACGAGGAUAUCGAGUUUAGUACAUGAGGAUCACCCAUGUUAUCCAGGUCUCGUUUCGAGAAGGCGUGAUUC [LRO-Ex5-08] (puzzle: Exclusion 5) | 200 | – | – | –
